B1: His–M1 (influenza virus M1 protein, wild type) (natural protein)
chain: MSLLTEVETYVLSIIPSGPLKAEIAQRLEDVFAGKNTDLEVLMEWLKTRPILSPLTKGILGFVFTLTVPSERGLQRRRFVQNALNGNGDPNNMDKAVKLYRKLKREITFHGAKEISLSYSAGALASCMGLIYNRMGAVTTEVAFGLVCATCEQIADSQHRSHRQMVTTTNPLIRHENRMVLASTTAKAMEQMAGSSEQAAEAMEVASQARQMVQAMRTIGTHPSSSAGLKNDLLENLQAYQKRMGVQMQRFK

How the values were obtained:
[1] = biological target: B1; assay: far-Western, overlay or dot blot
[2] = biological target: B1; assay: pull-down
[3] = biological target: GST–Hsc70 wild-type (1–646 aa) (UniProt P11142 1-646); assay: pull-down
GST–Hsc70 wild-type (1–646 aa), sequence (P11142 whole entry, the tested form may be a part): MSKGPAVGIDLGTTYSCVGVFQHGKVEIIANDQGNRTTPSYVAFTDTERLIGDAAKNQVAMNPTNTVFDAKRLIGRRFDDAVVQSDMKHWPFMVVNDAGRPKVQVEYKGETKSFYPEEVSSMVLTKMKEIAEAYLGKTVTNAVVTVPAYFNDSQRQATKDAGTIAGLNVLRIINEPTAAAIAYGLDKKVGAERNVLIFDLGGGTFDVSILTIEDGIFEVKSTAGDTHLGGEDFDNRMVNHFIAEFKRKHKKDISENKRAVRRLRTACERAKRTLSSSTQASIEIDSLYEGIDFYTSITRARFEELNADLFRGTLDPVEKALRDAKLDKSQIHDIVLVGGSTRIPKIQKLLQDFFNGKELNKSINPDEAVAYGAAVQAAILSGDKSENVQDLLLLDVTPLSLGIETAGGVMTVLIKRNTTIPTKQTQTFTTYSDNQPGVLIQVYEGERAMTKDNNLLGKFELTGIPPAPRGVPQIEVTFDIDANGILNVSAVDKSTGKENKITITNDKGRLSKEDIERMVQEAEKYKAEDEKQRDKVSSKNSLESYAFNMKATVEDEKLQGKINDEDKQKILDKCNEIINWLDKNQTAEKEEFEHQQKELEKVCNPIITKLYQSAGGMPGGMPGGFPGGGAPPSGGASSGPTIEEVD

Row | Binder | relative band intensity [1] | further results
1 | GST–Hsc70 N402 (1–402 aa) (domain or fragment) not shown | 0.71 relative (wild type = 1) | –
2 | GST–Hsc70 N384 (1–384 aa) (domain or fragment) not shown | 0.26 relative (wild type = 1) | –
3 | GST–NS2 (natural protein) MDPNTVSSFQDILLRMSKMQLESSSGDLNGMITQFESLKLYRDSLGEAVMRMGDLHSLQNRNEKWREQLGQKFEEIRWLIEEVRHKLKITENSFEQITFMQALHLLLEVEQEIRTFSFQLI | – | Kd [2]: 6 µM
4 | B1 | – | Kd [3]: 0.1 µM
